This is an account of results in publication PMC10030653, “ClpC2 protects mycobacteria against a natural antibiotic targeting ClpC1-dependent protein degradation” (Communications Biology, 2023).

Series [1] addresses cyclomarin A (Streptomyces sp. CNB-982). Description: ITC; 50 uM (monomer) ClpC1 NTD or ClpC2 titrated into 5 uM CymA at 37 C; 50 mM HEPES-KOH pH 7.5, 150 mM KCl, 9% DMSO, 1 mM EDTA; one-site binding model. For orientation: ITC needs no label: the signal is the heat of the interaction.
The subject of series [2] is DNA probe containing the clpC2 operator site. Description: EMSA, ClpC1 binding to DNA. In general terms: In EMSA bound probe runs differently from free probe, usually more slowly.
For a further series, the system named is ClpC1 NTD. The following applies: cited from earlier work.
In the next series the target is ClpC1 (Mycobacterium tuberculosis, UniProt P9WPC9 1-848). Description: EMSA; 1-25 uM ClpC1, 0.5 nM DNA; EMSA: 5 mM HEPES-KOH pH 7.5, 30 mM KCl, 1% glycerol, 10 mM MgCl2, room temperature 20 min, 12% polyacrylamide gel. The following applies: protein: recombinant; tags: untagged; label: 5'-FAM; blunt.
A further series concerns the target T1, ClpC2 WT (Mycobacterium tuberculosis, UniProt P9WPC7 1-252).
T1 sequence: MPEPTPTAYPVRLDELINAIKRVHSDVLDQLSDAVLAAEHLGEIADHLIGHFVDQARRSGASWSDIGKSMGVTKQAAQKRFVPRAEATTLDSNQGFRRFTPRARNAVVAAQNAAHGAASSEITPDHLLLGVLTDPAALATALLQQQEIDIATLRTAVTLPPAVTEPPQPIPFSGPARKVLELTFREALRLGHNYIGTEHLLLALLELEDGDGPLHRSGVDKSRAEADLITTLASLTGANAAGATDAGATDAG
Description: EMSA; 1-25 nM ClpC2, 0.5 nM DNA, no CymA; EMSA: 5 mM HEPES-KOH pH 7.5, 30 mM KCl, 1% glycerol, 10 mM MgCl2, room temperature 20 min, 12% polyacrylamide gel. The following applies: protein: recombinant; tags: untagged; chain copies: 2; label: 5'-FAM; blunt.

Chain of ClpC1 (P9WPC9 whole entry): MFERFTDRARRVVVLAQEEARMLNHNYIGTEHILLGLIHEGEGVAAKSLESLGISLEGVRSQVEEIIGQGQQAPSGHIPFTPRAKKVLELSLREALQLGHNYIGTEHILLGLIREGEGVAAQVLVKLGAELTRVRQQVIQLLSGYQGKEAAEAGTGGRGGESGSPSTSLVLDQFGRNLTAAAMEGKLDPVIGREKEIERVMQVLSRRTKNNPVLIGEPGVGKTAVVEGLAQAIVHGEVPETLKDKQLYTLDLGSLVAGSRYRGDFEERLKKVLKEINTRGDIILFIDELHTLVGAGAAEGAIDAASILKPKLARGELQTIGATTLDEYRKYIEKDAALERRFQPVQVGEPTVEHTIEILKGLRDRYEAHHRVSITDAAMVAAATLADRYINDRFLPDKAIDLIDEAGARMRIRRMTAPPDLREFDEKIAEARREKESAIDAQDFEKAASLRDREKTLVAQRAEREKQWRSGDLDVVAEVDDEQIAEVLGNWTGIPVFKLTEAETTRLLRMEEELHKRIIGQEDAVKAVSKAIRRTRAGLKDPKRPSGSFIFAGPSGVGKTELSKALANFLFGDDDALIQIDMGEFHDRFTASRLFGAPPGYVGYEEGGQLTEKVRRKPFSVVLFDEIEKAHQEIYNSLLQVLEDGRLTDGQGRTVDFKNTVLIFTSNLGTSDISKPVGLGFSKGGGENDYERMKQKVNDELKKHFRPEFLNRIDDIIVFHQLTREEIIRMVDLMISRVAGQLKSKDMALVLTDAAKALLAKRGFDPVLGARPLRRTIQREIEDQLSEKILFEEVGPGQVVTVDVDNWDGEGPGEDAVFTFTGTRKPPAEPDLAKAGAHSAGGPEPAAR

Usually Kd stands for the constant that tells how readily two partners part at equilibrium. In turn, “ClpC1 N-terminal domain, residues 1-145 (ClpC1 NTD) (from UniProt P9WPC9 1-145) (domain or fragment)” yielded a Kd in series [1] of 2.3 nM. Turning to “ClpC1: AAA+ chaperone ClpC1, purified Mtb protein”, in series [2] (EMSA), the “affinity of ClpC1 for DNA relative to ClpC2” value is recorded as “at least two orders of magnitude lower affinity than exhibited by ClpC2”. For the same molecule, the “sequence specificity of ClpC1 for clpC2 operator site” value in series [2] (EMSA with unlabelled competitor DNA) is recorded as “little sequence specificity for the clpC2 operator site”. Further, in series [2] (EMSA, 1-25 µM ClpC1, 0.5 nM DNA probe with clpC2 operator site), the “KD, ClpC1 to DNA” value was “low micromolar range”. The term stoichiometry N denotes the number of molecules, sites or subunits per partner or assembly. In series [1], “Mycobacterium tuberculosis ClpC2 (full length, wild type) (natural protein)” displayed a Kd of 2.2 nM and a stoichiometry N of 1.

In the case of ecumicin, the target binding domain entry with ClpC1 NTD is “specifically target ClpC1 NTD”.

Turning to lassomycin, in the series with ClpC1 NTD, the target binding domain entry is “specifically target ClpC1 NTD”.

B1: clpC2_FAM_EMSA 41 bp operator probe (dsDNA)
DNA 1: ACAATGCATAACGTCAACCTACTGTTGACGTCATGCCGGAG
DNA 2: CTCCGGCATGACGTCAACAGTAGGTTGACGTTATGCATTGT
B1: the binding result in the series with ClpC1 and with ClpC2 WT was “binds” throughout.
